Source: publication PMC11528232 (Cell Reports Medicine, 2024)

What was measured:
FcRn = FcRn (UniProt P55899); test: SPR
FcγRIIIA_(F158) = FcγRIIIA_(F158) (UniProt P08637); test: SPR
FcγRI = FcγRI (UniProt P12314); test: SPR
FcγRIIIA_(V158) = test: SPR
FcγRIIA_(H131) = FcγRIIA_(H131) (UniProt P12318); test: SPR
human Claudin18.2 = human Claudin18.2 (Homo sapiens, UniProt P56856-2); test: flow cytometry on cells

Chain of FcγRIIA_(H131) (P12318 34-317): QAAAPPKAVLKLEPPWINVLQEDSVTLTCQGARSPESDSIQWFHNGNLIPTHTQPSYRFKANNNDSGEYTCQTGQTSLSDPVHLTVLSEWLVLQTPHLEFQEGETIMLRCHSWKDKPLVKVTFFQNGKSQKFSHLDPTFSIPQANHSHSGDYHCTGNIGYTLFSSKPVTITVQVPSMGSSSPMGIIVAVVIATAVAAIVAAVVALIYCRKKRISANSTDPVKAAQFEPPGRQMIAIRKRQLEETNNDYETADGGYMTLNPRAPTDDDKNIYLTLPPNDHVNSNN
Chain of FcγRIIIA_(V158) (P08637 17-208): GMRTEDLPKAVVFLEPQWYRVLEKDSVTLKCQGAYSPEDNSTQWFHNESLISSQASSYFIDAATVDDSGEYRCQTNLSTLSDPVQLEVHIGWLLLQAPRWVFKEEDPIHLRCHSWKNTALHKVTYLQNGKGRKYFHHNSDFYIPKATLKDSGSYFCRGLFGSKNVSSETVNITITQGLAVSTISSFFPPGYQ
Chain of FcγRI (P12314 16-374): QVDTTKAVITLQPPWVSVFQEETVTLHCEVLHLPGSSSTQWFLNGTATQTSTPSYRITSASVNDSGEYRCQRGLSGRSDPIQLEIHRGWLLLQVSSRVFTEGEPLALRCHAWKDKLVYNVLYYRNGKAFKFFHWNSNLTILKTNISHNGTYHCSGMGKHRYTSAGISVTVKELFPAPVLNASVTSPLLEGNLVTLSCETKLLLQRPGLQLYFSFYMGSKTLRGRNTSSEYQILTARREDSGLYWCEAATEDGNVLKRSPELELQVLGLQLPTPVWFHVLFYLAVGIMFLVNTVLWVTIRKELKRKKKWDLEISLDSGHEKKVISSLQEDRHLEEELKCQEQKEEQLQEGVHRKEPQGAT
Chain of FcRn (P55899 24-365, chain 1 of 2): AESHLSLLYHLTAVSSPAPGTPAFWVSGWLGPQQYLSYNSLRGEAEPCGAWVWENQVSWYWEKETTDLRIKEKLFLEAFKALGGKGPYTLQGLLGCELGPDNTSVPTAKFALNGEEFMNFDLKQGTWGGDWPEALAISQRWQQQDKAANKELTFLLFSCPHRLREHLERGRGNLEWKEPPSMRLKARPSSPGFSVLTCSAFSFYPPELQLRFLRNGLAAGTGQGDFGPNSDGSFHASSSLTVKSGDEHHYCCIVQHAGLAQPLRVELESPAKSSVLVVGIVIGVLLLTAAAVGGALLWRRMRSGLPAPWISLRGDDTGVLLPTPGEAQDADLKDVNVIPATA
Chain of FcRn (P61769 21-119, chain 2 of 2, further chain): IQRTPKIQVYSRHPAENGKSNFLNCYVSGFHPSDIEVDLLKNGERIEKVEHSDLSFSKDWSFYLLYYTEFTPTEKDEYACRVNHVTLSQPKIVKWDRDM
Chain of FcγRIIIA_(F158) (P08637 17-254): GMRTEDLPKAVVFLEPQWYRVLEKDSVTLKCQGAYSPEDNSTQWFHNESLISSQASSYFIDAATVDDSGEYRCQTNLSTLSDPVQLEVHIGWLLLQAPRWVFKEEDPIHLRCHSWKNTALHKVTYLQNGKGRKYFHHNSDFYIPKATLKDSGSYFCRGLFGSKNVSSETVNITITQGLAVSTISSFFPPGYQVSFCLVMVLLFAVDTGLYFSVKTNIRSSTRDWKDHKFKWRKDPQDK

Molecule | Kd (FcRn) | Kd (FcγRIIIA_(F158)) | Kd (FcγRI) | Kd (FcγRIIIA_(V158)) | Kd (FcγRIIA_(H131)) | EC50 (human Claudin18.2)
CM311 (antibody) | 1530 nM | 330 nM | 7.23 nM | 78.9 nM | 2770 nM | –
CMG901 (antibody) | 1730 nM | 490 nM | 5.95 nM | 126 nM | 6290 nM | –
Zolbetuximab analog (antibody, V domains shown) VH: QVQLQQPGAELVRPGASVKLSCKASGYTFTSYWINWVKQRPGQGLEWIGNIYPSDSYTNYNQKFKDKATLTVDKSSSTAYMQLSSPTSEDSAVYYCTRSWRGNSFDYWGQGTTLTVSS VL: DIVMTQSPSSLTVTAGEKVTMSCKSSQSLLNSGNQKNYLTWYQQKPGQPPKLLIYWASTRESGVPDRFTGSGSGTDFTLTISSVQAEDLAVYYCQNDYSYPFTFGSGTKLEIK | – | – | – | – | – | 2.2 nM
